Measurements taken from PMC11371828 (Nature Communications, 2024).
Substitutions are numbered along the chain they refer to.

What was measured:
Assay in all cases: pull-down
[1] = molecular target: T1, 6xHis-IKKβ(1-669) EE M475A (human, UniProt O14920 1-669, S177E | S181E | M475A)
T1 sequence (looked up): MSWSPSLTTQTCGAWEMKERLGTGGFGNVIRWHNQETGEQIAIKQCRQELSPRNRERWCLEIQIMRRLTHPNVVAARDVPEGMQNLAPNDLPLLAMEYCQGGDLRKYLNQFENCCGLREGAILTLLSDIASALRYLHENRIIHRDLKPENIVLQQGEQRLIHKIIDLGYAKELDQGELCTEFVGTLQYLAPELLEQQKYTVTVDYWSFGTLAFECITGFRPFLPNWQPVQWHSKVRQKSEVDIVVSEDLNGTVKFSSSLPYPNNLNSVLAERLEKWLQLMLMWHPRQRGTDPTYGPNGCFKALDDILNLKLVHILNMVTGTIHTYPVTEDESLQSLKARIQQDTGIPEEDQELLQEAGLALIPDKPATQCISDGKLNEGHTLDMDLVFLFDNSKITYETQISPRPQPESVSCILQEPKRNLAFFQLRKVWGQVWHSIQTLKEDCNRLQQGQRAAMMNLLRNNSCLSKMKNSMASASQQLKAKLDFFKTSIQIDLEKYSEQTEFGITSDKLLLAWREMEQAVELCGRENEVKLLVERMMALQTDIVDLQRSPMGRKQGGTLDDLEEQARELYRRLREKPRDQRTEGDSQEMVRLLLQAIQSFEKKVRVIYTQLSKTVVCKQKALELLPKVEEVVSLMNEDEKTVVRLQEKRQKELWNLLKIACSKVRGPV

[2] = molecular target: T2, 6xHis-IKKβ(1-669) EE R460E (human, UniProt O14920 1-669, S177E | S181E | R460E)
T2 sequence (looked up): T1 sequence (looked up) with R460E, A475M

[3] = molecular target: T3, 6xHis-IKKβ(1-669) EE K469E (human, UniProt O14920 1-669, S177E | S181E | K469E)
T3 sequence (looked up): T1 sequence (looked up) with K469E, A475M

- binding result [1]: binds
- binding result [2]: binds
- binding result [3]: binds
Binder: DELPYDDCVFGGQRLTL (peptide, UniProt P25963 301-317, looked up) [MBP-IκBα pep(s)]
